Measured values published in patent US20120316071A1 (published 2012).

How the values were obtained:
[1] = molecular target: T1, rHuman ErbB2/Fc Chimera, CF (R&D Systems Cat#1129-ER) (human, UniProt P04626 23-652); test: MSD multispot ECL, antigen spotted, Fab 9.3 nM; blank spot 287
T1 construct: Bought reagent; also called human epidermal growth factor 2 receptor

[2] = molecular target: T2, rHuman EGF R/Fc Chimera, CF (R&D Systems Cat#344-ER) (human, UniProt P00533 25-645); test: as above
T2 construct: Bought reagent; also called epidermal growth factor receptor

[3] = molecular target: T3, rHuman HGF R/c-MET/Fc Chimera, CF (R&D Systems Cat#358-MT/CF) (human, UniProt P08581 25-932); test: as above
T3 construct: Bought reagent; also called HGF R/Fc; hepatocyte growth factor receptor

[4] = molecular target: T4, Recombinant Human DLL4 (R&D Systems Cat#1506-D4/CF) (human, UniProt Q9NR61 27-524); test: as above
T4 construct: Bought recombinant protein; also called rHuman DLL4; delta-like protein 4

[5] = molecular target: T5, rHuman IGF-1 sR, (IGF-1 sR), CF (R&D Systems Cat#391-GR) (human, UniProt P08069 31-932); test: as above
T5 construct: Bought soluble receptor; also called insulin-like growth factor-1 soluble receptor

[6] = molecular target: T6, rHuman Erythropoietin R/Fc Chimera, CF (R&D Systems Cat#963-ER) (human, UniProt P19235 25-250); test: as above
T6 construct: Bought reagent; also called EPO R/Fc; Epo R
T6 sequence (looked up): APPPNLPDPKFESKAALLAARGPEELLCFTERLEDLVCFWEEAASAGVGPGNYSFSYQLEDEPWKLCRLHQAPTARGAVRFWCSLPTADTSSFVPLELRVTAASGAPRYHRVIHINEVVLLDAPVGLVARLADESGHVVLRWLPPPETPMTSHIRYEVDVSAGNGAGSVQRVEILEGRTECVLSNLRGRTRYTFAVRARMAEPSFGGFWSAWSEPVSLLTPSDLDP

[7] = molecular target: T7, rHuman CD44/Fc Chimera, CF (R&D Systems Cat#3660-CD) (human, UniProt P16070 21-220); test: as above
T7 construct: Bought reagent

[8] = molecular target: T8, rHuman Notch-1/Fc Chimera, CF (R&D Systems Cat#3647-TK) (human, UniProt P46531 19-526); test: as above
T8 construct: Bought reagent

[9] = molecular target: T9, rHuman P-Cadherin/Fc Chimera, CF (R&D Systems Cat#861-PC) (human, UniProt P22223 108-654); test: ECL Multispot (MSD), antigen spotted; Fab 0.50 (µM); blank 142
T9 construct: Bought recombinant protein; Fc part of the bought chimera not given

[10] = molecular target: T10, rHuman Erythropoietin R/Fc Chimera, CF (R&D Systems Cat#963-ER) (human, UniProt P19235 25-250); test: as above
T10 construct: Bought recombinant protein; also called EPO R; EPO R/Fc; Fc part of the bought chimera not given
T10 sequence (looked up): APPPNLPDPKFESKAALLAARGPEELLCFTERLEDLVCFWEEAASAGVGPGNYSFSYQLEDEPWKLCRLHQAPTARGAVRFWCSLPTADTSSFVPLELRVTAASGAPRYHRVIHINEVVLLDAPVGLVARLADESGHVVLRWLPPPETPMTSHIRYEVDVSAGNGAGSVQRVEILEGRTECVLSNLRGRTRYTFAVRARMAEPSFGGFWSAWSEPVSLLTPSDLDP

[11] = molecular target: T11, rHuman IGF-1 sR, CF (R&D Systems Cat#391-GR) (human, UniProt P08069 31-932); test: as above
T11 construct: Bought recombinant soluble receptor; also called insulin-like growth factor-1 soluble receptor

[12] = molecular target: T12, rHuman Notch-1/Fc Chimera, CF (R&D Systems Cat#3647-TK) (human, UniProt P46531 19-526); test: as above
T12 construct: Bought recombinant protein; Fc part of the bought chimera not given

[13] = molecular target: T13, rHuman EGF R/Fc Chimera, CF (R&D Systems Cat#344-ER) (human, UniProt P00533 25-645); test: as above
T13 construct: Bought recombinant protein; Fc part of the bought chimera not given

[14] = molecular target: T14, rHuman Erythropoietin R/Fc Chimera, CF (R&D Systems Cat#963-ER) (human, UniProt P19235 25-250); test: MSD Multispot ECL, antigen spotted on plate, Fab 8.1 nM; blank spot 435
T14 construct: Bought reagent; also called EPO R/Fc; EPO R; Fc part of the bought chimera not given
T14 sequence (looked up): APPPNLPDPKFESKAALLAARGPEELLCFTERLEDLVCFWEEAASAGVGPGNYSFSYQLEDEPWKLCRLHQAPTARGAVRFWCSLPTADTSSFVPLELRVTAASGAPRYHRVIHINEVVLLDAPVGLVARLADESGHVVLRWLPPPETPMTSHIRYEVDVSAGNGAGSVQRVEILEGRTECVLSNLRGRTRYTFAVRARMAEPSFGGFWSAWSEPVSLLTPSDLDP

[15] = molecular target: T15, rHuman IGF-1 sR, (IGF-1 sR), CF (R&D Systems Cat#391-GR) (human, UniProt P08069 31-932); test: as above
T15 construct: Bought soluble receptor; also called insulin-like growth factor-1 soluble receptor

[16] = molecular target: T16, rHuman CD44/Fc Chimera, CF (R&D Systems Cat#3660-CD) (human, UniProt P16070 21-220); test: as above
T16 construct: Bought reagent; Fc part of the bought chimera not given

[17] = molecular target: T17, rHuman Notch-1/Fc Chimera, CF (R&D Systems Cat#3647-TK) (human, UniProt P46531 19-526); test: as above
T17 construct: Bought reagent; Fc part of the bought chimera not given

[18] = molecular target: T18, rHuman EGF R/Fc Chimera, CF (R&D Systems Cat#344-ER) (human, UniProt P00533 25-645); test: as above
T18 construct: Bought reagent; also called epidermal growth factor receptor; Fc part of the bought chimera not given

[19] = molecular target: T19, rHuman HGF R/c-MET/Fc Chimera, CF (R&D Systems Cat#358-MT/CF) (human, UniProt P08581 25-932); test: as above
T19 construct: Bought reagent; also called HGF R/Fc; hepatocyte growth factor receptor; Fc part of the bought chimera not given

B1: Fab VH1-46_IGHD6-6*01_IGHJ1*01 & L6_IGKJ1*01 (Fab, V domains shown)
VH: QVQLVQSGAEVKKPGASVKVSCKASGYTFTSYYMHWVRQAPGQGLEWMGIINPSGGSTSYAQKFQGRVTMTRDTSTSTVYMELSSLRSEDTAVYYCAREEYSSSSAEYFQHWGQGTLVTVSS
VL: not shown
notes: Only variable domains are tied to the molecule; Tested as a Fab made in E. coli: heavy chain from Plasmid A (CH1 constant region, His6 and Flag tags), kappa light chain from Plasmid C (kappa CL); also called parent Hit Fab against DLL4; VH1-46_IGHD6-6*01_IGHJ1*01 & L6_IGKJ1*01 (parental)
[1]
  ECL signal: 354 ECL signal
[2]
  ECL signal: 424 ECL signal
[3]
  ECL signal: 324 ECL signal
[4]
  ECL signal: 13200 ECL signal
[5]
  ECL signal: 315 ECL signal
[6]
  ECL signal: 306 ECL signal
[7]
  ECL signal: 396 ECL signal
[8]
  ECL signal: 492 ECL signal

B2: Fab VH1-46_IGHD6-6*01_IGHJ1*01 S102A/S103P/S104F (APF) & L6_IGKJ1*01 (Fab, V domains shown)
VH: QVQLVQSGAEVKKPGASVKVSCKASGYTFTSYYMHWVRQAPGQGLEWMGIINPSGGSTSYAQKFQGRVTMTRDTSTSTVYMELSSLRSEDTAVYYCAREEYAPFSAEYFQHWGQGTLVTVSS
VL: not shown
notes: Tested as a Fab made in E. coli: VH cloned in Plasmid A (CH1 constant region, His6 and Flag tags), VL in Plasmid C (kappa constant region); also called H:APF & L:wt; APF triple mutant
[9]
  ECL signal: 161
[10]
  ECL signal: 235
[11]
  ECL signal: 190
[12]
  ECL signal: 230
[13]
  ECL signal: 152

B3: Fab VH1-8_IGHD2-2*01_IGHJ6*01 & L12_IGKJ1*01 (Fab, V domains shown)
VH: QVQLVQSGAEVKKPGASVKVSCKASGYTFTSYDINWVRQATGQGLEWMGWMNPNSGNTGYAQKFQGRVTMTRNTSISTAYMELSSLRSEDTAVYYCARGGYCSSTSCYADYYYYYGMDVWGQGTTVTVSS
VL: not shown
[14]
  ECL signal: 660
[15]
  ECL signal: 518
[16]
  ECL signal: 528
[17]
  ECL signal: 612
[18]
  ECL signal: 560
[19]
  ECL signal: 551
